# Values joined by “and” are separate entries in the source; they are usually repeats but may differ in a detail not shown here. Equal values may be shown once.
# B1: canine IgG.B Fc variant H433A with SASA tag (Fc fusion)
# chain: APEMLGGPSVFIFPPKPKDTLLIARTPEVTCVVVDLDPEDPEVQISWFVDGKQMQTAKTQPREEQFNGTYRVVSVLPIGHQDWLKGKQFTCKVNNKALPSPIERTISKARGQAHQPSVYVLPPSREELSKNTVSLTCLIKDFFPPDIDVEWQSNGQQEPESKYRTTPPQLDEDGSYFLYSKLSVDKSRWQRGDTFICAVMHEALANHYTQESLSHSPGK
# B2: canine IgG.B Fc variant A254S with SASA tag (Fc fusion)
# chain: APEMLGGPSVFIFPPKPKDTLLISRTPEVTCVVVDLDPEDPEVQISWFVDGKQMQTAKTQPREEQFNGTYRVVSVLPIGHQDWLKGKQFTCKVNNKALPSPIERTISKARGQAHQPSVYVLPPSREELSKNTVSLTCLIKDFFPPDIDVEWQSNGQQEPESKYRTTPPQLDEDGSYFLYSKLSVDKSRWQRGDTFICAVMHEALHNHYTQESLSHSPGK
# B3: canine IgG.B Fc variant Y436A with SASA tag (Fc fusion)
# chain: APEMLGGPSVFIFPPKPKDTLLIARTPEVTCVVVDLDPEDPEVQISWFVDGKQMQTAKTQPREEQFNGTYRVVSVLPIGHQDWLKGKQFTCKVNNKALPSPIERTISKARGQAHQPSVYVLPPSREELSKNTVSLTCLIKDFFPPDIDVEWQSNGQQEPESKYRTTPPQLDEDGSYFLYSKLSVDKSRWQRGDTFICAVMHEALHNHATQESLSHSPGK
# B4: canine IgG.B Fc variant G309A with SASA tag (Fc fusion)
# chain: APEMLGGPSVFIFPPKPKDTLLIARTPEVTCVVVDLDPEDPEVQISWFVDGKQMQTAKTQPREEQFNGTYRVVSVLPIAHQDWLKGKQFTCKVNNKALPSPIERTISKARGQAHQPSVYVLPPSREELSKNTVSLTCLIKDFFPPDIDVEWQSNGQQEPESKYRTTPPQLDEDGSYFLYSKLSVDKSRWQRGDTFICAVMHEALHNHYTQESLSHSPGK
# B5: canine IgG.B Fc variant N434A with SASA tag (Fc fusion)
# chain: APEMLGGPSVFIFPPKPKDTLLIARTPEVTCVVVDLDPEDPEVQISWFVDGKQMQTAKTQPREEQFNGTYRVVSVLPIGHQDWLKGKQFTCKVNNKALPSPIERTISKARGQAHQPSVYVLPPSREELSKNTVSLTCLIKDFFPPDIDVEWQSNGQQEPESKYRTTPPQLDEDGSYFLYSKLSVDKSRWQRGDTFICAVMHEALHAHYTQESLSHSPGK
# B6: canine IgG.B Fc variant L252A with SASA tag (Fc fusion)
# chain: APEMLGGPSVFIFPPKPKDTLAIARTPEVTCVVVDLDPEDPEVQISWFVDGKQMQTAKTQPREEQFNGTYRVVSVLPIGHQDWLKGKQFTCKVNNKALPSPIERTISKARGQAHQPSVYVLPPSREELSKNTVSLTCLIKDFFPPDIDVEWQSNGQQEPESKYRTTPPQLDEDGSYFLYSKLSVDKSRWQRGDTFICAVMHEALHNHYTQESLSHSPGK
# B7: canine IgG.B Fc variant N434W with SASA tag (Fc fusion)
# chain: APEMLGGPSVFIFPPKPKDTLLIARTPEVTCVVVDLDPEDPEVQISWFVDGKQMQTAKTQPREEQFNGTYRVVSVLPIGHQDWLKGKQFTCKVNNKALPSPIERTISKARGQAHQPSVYVLPPSREELSKNTVSLTCLIKDFFPPDIDVEWQSNGQQEPESKYRTTPPQLDEDGSYFLYSKLSVDKSRWQRGDTFICAVMHEALHWHYTQESLSHSPGK
# B8: canine IgG.B Fc variant N434S with SASA tag (Fc fusion)
# chain: APEMLGGPSVFIFPPKPKDTLLIARTPEVTCVVVDLDPEDPEVQISWFVDGKQMQTAKTQPREEQFNGTYRVVSVLPIGHQDWLKGKQFTCKVNNKALPSPIERTISKARGQAHQPSVYVLPPSREELSKNTVSLTCLIKDFFPPDIDVEWQSNGQQEPESKYRTTPPQLDEDGSYFLYSKLSVDKSRWQRGDTFICAVMHEALHSHYTQESLSHSPGK
# B9: canine IgG.B Fc variant N434Y with SASA tag (Fc fusion)
# chain: APEMLGGPSVFIFPPKPKDTLLIARTPEVTCVVVDLDPEDPEVQISWFVDGKQMQTAKTQPREEQFNGTYRVVSVLPIGHQDWLKGKQFTCKVNNKALPSPIERTISKARGQAHQPSVYVLPPSREELSKNTVSLTCLIKDFFPPDIDVEWQSNGQQEPESKYRTTPPQLDEDGSYFLYSKLSVDKSRWQRGDTFICAVMHEALHYHYTQESLSHSPGK
# B10: canine IgG.B Fc variant N434H with SASA tag (Fc fusion)
# chain: APEMLGGPSVFIFPPKPKDTLLIARTPEVTCVVVDLDPEDPEVQISWFVDGKQMQTAKTQPREEQFNGTYRVVSVLPIGHQDWLKGKQFTCKVNNKALPSPIERTISKARGQAHQPSVYVLPPSREELSKNTVSLTCLIKDFFPPDIDVEWQSNGQQEPESKYRTTPPQLDEDGSYFLYSKLSVDKSRWQRGDTFICAVMHEALHHHYTQESLSHSPGK
# B11: canine IgG.B Fc YTE variant (L252Y/A254T/T256E) with SASA tag (Fc fusion)
# chain: APEMLGGPSVFIFPPKPKDTLYITREPEVTCVVVDLDPEDPEVQISWFVDGKQMQTAKTQPREEQFNGTYRVVSVLPIGHQDWLKGKQFTCKVNNKALPSPIERTISKARGQAHQPSVYVLPPSREELSKNTVSLTCLIKDFFPPDIDVEWQSNGQQEPESKYRTTPPQLDEDGSYFLYSKLSVDKSRWQRGDTFICAVMHEALHNHYTQESLSHSPGK
# Target: T1, canine FcRn (canine)
# T1 construct: Injected in solution as SPR analyte
# Assay: SPR, pH 5.5, FcRn 400 nM over captured Fc
Binder,Kd,koff,kon
B1,266 nM and 359 nM,0.229 s⁻¹ and 0.0997 s⁻¹,
B2,340 nM and 317 nM,,
B3,393 nM and 876 nM,0.407 s⁻¹ and 0.213 s⁻¹,
B4,245 nM and 294 nM,,
B5,457 nM and 494 nM,0.237 s⁻¹ and 0.477 s⁻¹,518000 M⁻¹ s⁻¹ and 966000 M⁻¹ s⁻¹
B6,292 nM and 240 nM,,

# Target: T1, canine FcRn
# Assay: SPR, pH 5.5, FcRn 200 nM over captured Fc
Binder,Kd,koff,kon
B7,40.4 nM and 75.7 nM,,
B8,924 nM and 1050 nM,0.207 s⁻¹ and 0.209 s⁻¹,225000 M⁻¹ s⁻¹ and 199000 M⁻¹ s⁻¹
B9,15.9 nM,0.00968 s⁻¹,607000 M⁻¹ s⁻¹
B5,573 nM and 629 nM,0.156 s⁻¹ and 0.164 s⁻¹,272000 M⁻¹ s⁻¹ and 261000 M⁻¹ s⁻¹

# Target: T1, canine FcRn
# Assay: SPR, pH 5.5, FcRn 100-800 nM over captured Fc
Binder,Kd,koff,kon
B10,247 nM,0.102 s⁻¹,411000 M⁻¹ s⁻¹
B7,101 nM,0.045 s⁻¹,446000 M⁻¹ s⁻¹
B9,29.1 nM,0.0151 s⁻¹,520000 M⁻¹ s⁻¹
B11,184 nM,0.046 s⁻¹,250000 M⁻¹ s⁻¹

# — US20230279118A1 (published 2023)
